Data reported in patent US20190284258.

System: T1, Haemadipsa sylvestris antithrombotic peptide Sylvestin
T1 sequence: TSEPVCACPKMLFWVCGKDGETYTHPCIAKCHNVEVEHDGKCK

Substance | enzyme kinetics, chromogenic substrate, OD 405 nm | enzyme kinetics, chromogenic substrate, OD 405 nm; sample 10 µM
kallikrein | it can inhibit FXIIa and kallikrein | 
thrombin |  | had no inhibitory effect on thrombin, plasminogen FXa or the like
FXa |  | had no inhibitory effect on thrombin, plasminogen FXa or the like
plasminogen |  | had no inhibitory effect on thrombin, plasminogen FXa or the like
FXIIa | it can inhibit FXIIa and kallikrein | 
